Numbering of substitutions follows the chain as printed. A value given as a limit tells only on which side of the number the result lay.

What all share (experiment): ITC
A general note: In ITC the heat of successive injections is recorded.

The target in experiment [1] is T1, Kj12C-^NDD Q26K, E28A (modified Kj12C-^NDD) (Xenorhabdus stockiae KJ12.1).
T1 chain: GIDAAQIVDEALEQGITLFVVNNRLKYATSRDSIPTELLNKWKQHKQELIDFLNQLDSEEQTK

In experiment [2] the target is Kj12A-^CDD peptide (C-terminal docking domain of Kj12A) (Xenorhabdus stockiae KJ12.1).
Experiment [3] concerns the target Kj12B-^CDD_(short) peptide G1566A (printed as G1565 replaced with alanine) (Xenorhabdus stockiae KJ12.1).
In experiment [4] the target is Kj12B-CDDshort R1565E peptide (Xenorhabdus stockiae KJ12.1, R1565E (stands in the printed letters)).
Experiment [5] has as its target Kj12B-^CDD_(short) peptide L1564A (Xenorhabdus stockiae KJ12.1, L1564A (stands in the printed letters)).

B1: Kj12B-^CDD peptide (C-terminal docking domain of Kj12B) (peptide)
peptide: LLKEKRKHFQAEQNSSQEYLRGEI
modifications: Limits taken from PDB 6EWU (isolated NDD). Residue 1 is Gly as in the entity, possibly a SUMO-cleavage/cloning replacement of the native Met. In vivo, the variant was in full-length Kj12C.
Take B1: binding in experiment [1] was put at a Kd of 80 µM.

B2: Kj12A-^NDD (N-terminal docking domain of Kj12A) (domain or fragment)
chain: MKNAAQIVDEALNQGITLFVADNRLQYETSRDNIPEELLNEWKYYRQDLIDFLQQLDAKEETQ
In the case of B2, the Kd (in general, the equilibrium constant for the complex coming apart) in experiment [2] is > 100 µM.

B3: Kj12B-^NDD (N-terminal docking domain of Kj12B) (domain or fragment)
chain: MKNAAKIVNEALNQGITLFVSDNKLKYKTNRDSIPSELLEEWKQHKQELIDFLTQLESEEES
With B3, in experiment [2], the Kd was > 100 µM.

B4: Kj12C-^NDD (N-terminal docking domain of Kj12C) (domain or fragment)
chain: T1 chain with K26Q, A28E
Take B4: the Kd in experiment [3], in experiment [4] and in experiment [5] was > 100 µM each time.

Source of the values: PMC6195595 (2018).
